According to US20140045211:

Tests used:
[1] = molecular target: 2D6 ubiquitin-CCL7 fusion
[2] = molecular target: 3D3 ubiquitin-CCL7 fusion (ubiquitin I3L, V17L, I23V)

B1: Usp2-cc (catalytic core of the mouse deubiquitylating enzyme Usp2) (protein)
chain: SKSAQGLAGLRNLGNTCFMNSILQCLSNTRELRDYCLQRLYMRDLGHTSSAHTALMEEFAKLIQTIWTSSPNDVVSPSEFKTQIQRYAPRFMGYNQQDAQEFLRFLLDGLHNEVNRVAARPKASPETLDHLPDEEKGRQMWRKYLEREDSRIGDLFVGQLKSSLTCTDCGYCSTVFDPFWDLSLPIAKRGYPEVTLMDCMRLFTKEDILDGDEKPTCCRCRARKRCIKKFSVQRFPKILVLHLKRFSESRIRTSKLTTFVNFPLRDLDLREFASENTNHAVYNLYAVSNHSGTTMGGHYTAYCRSPVTGEWHTFNDSSVTPMSSSQVRTSDAYLLFYELASPPSRM
[1]
  Usp2-cc cleavage time course (SDS-PAGE): the 2D6 fusion (2D6-CCL7) was only partially cleavable, with large amounts of fusion remaining uncleaved after 12 hr
[2]
  Usp2-cc cleavage time course (SDS-PAGE): 3D3 ubiquitin (3D3-CCL7) was recognized and cleaved with efficiency similar to that observed for wildtype ubiquitin (WT-CCL7)
